Test results: article PMC8069351, “Characterization of Two Unique Cold-Active Lipases Derived from a Novel Deep-Sea Cold Seep Bacterium” (Microorganisms, 2021)

Substrate: CCCCCCCCCCCCCCCC(=O)Oc1ccc([N+](=O)[O-])cc1
Test: purified protein
Assay type: biochemical, Pseudomonas sp. gcc21
Conditions: 50 mM Tris-HCl pH 8.0, 4 °C, substrate 0.2-1.2 mM, text b44 swaps the two lipases' Km

B1: Lipase 2 (Pseudomonas sp. gcc21) (protein)
chain: MNSPLLKLSTLTLGLVFAAGAYAFNPGNPGGPSNPGGDQPVESGFPSVGNFEASGSFATTNASEGPSCTIYRPRTLGENDLKHPIILWGNGTGTSPSGYSALLNHWASHGFVVAAANTTNAGSGAEMLACLDYLAEQNGRGSGTYAGKLNLDAVGSSGHSQGGGGSIMAGQDSRITATAPFQPYTLGLGHRRASQSNQNGPMFLMTGSADTLASSEANGRPVFNNANVPVFWGELQGASHFVPAFNGGGYRGPSTAWYRYHLMGDQNAESTFYGADCKLCTSSEWKVQKKGIQ
In the case of B1, the Km is reported as 20 µM, the kcat is reported as 2.7 s⁻¹ and the kcat/Km is reported as 140000 M⁻¹ s⁻¹.
